Assay results taken from the RNAGym collection of RNA variant scans (doi:10.1021/acssynbio.7b00057).

B1: Pistol ribozyme (parent)
chain: GGGUCGUUGUUCCAUAAUCGCGUGGAUAUGGCACGCAAGUUUCUACCGGGCACCGUAAAUGUCCGACUGGAGCCGUUCGGGCGGCUAUAAACAGACCUCAGGCCCGAAGCGUGGCGGCACCUGCCGCCGGUGGUAAAAAAGAUCGGAAGAGCACACGUCU

Variants of: B1
Assay: aptazyme ON/OFF ratio, guanine; higher = stronger switching; co-transcriptional cleavage with and without guanine

Variant	aptazyme ON/OFF ratio
U7C G9C U10C U11G C12A C13G	1.05
U7C G9C U10C U11G C12A C13A	1.14
U7C G9C U10C U11G C12A C13U	1.04
U7C G9C U10A U11G C12U	1.05
U7C G9C U10A U11G C12G	1.29
U7C G9C U10A U11G C12A	1.11
U7C G9C U10C U11C C12G C13A	1.03
U7C G9C U10C U11C C12G C13U	1.05
U7C G9C U10C U11C C12G C13G	1.07
U7C G9U C12U	1.07
U7C G9U C12G	1.14
U7C G9U C12A	1.13
U7C G9C U10G U11A C12U C13G	1.05
U7C G9C U10G U11A C12U C13U	1.15
U7C G9C U10G U11A C12U C13A	1.19
U7C G9C U10C U11C C12A C13U	1.04
U7C G9C U10C U11C C12A C13G	1.05
U7C G9C U10C U11C C12A C13A	1.04
U7C G9C U10G U11A C12G C13A	1.13
U7C G9C U10G U11A C12G C13G	1.11
U7C G9C U10G U11A C12G C13U	1.09
U7C G9C U11C C12A	1.03
U7C G9C U11C C12G	1.04
U7C G9C U11C C12U	1.04

Variant	aptazyme ON/OFF ratio
U7C G9C U10G U11G C12U	1.07
U7C G9C U10G U11G C12G	1.12
U7C G9C U10G U11G C12A	1.11
U7C G9U U10A U11G C13A	1.14
U7C G9U U10A U11G C13G	1.02
U7C G9U U10A U11G C13U	1.21
U7C G9C U10A U11C C12U C13A	1.04
U7C G9C U10A U11C C12U C13G	1.03
U7C G9C U10A U11C C12U C13U	1.03
U7C G9C U10A U11C C12G C13U	1.17
U7C G9C U10A U11C C12G C13A	1.07
U7C G9C U10A U11C C12G C13G	1.27
U7C G9C U10G U11G C12A C13G	1.12
U7C G9C U10G U11G C12A C13U	1.09
U7C G9C U10G U11G C12A C13A	1.08
U7C G9U U10A C12U C13G	1.11
U7C G9U U10A C12U C13A	1.15
U7C G9U U10A C12U C13U	1.22
U7C G9U U10C U11A C12A C13U	1.15
U7C G9U U10C U11A C12A C13A	1.15
U7C G9U U10C U11A C12A C13G	1.04
U7C G9U U10C	2.79
U7C G9U U10A	1.32
U7C G9U U10A U11G C12G C13G	1.14

Variant	aptazyme ON/OFF ratio
U7C G9U U10A U11G C12G C13U	1.16
U7C G9U U10A U11G C12G C13A	1.1
U7C G9C U10C C12U C13U	1.07
U7C G9C U10C C12U C13G	1.07
U7C G9C U10C C12U C13A	1.04
U7C G9C U10A U11A C12A	1.16
U7C G9C U10A U11A C12U	1.05
U7C G9C U10A U11A C12G	1.09
U7C G9C U10G U11C	1.05
U7C G9C U10G U11A	1.09
U7C G9C U10G U11G	1.11
U7C G9C U10C U11G C13U	1.19
U7C G9C U10C U11G C13A	1.12
U7C G9C U10C U11G C13G	1.05
U7C G9U	1.05
U7C G9C U10A U11G C12A C13U	1.06
U7C G9C U10A U11G C12A C13A	1.15
U7C G9C U10A U11G C12A C13G	1.03
U7C G9C U10C U11A C13G	1.05
U7C G9C U10C U11A C13A	1.09
U7C G9C U10C U11A C13U	1.03
U7C G9U U10A C12A C13A	1.37
U7C G9U U10A C12A C13G	1.14
U7C G9U U10A C12A C13U	1.36

Variant	aptazyme ON/OFF ratio
U7C G9U U10A U11C C13U	1.07
U7C G9U U10A U11C C13A	1.11
U7C G9U U10A U11C C13G	1.03
U7C G9C U10C U11G C12G C13U	1.12
U7C G9C U10C U11G C12G C13A	1.11
U7C G9C U10C U11G C12G C13G	1.11
U7C G9C U11A	1.03
U7C G9C U11G	1.06
U7C G9C U11C	1.03
U7C G9C U11G C13G	1.03
U7C G9C U11G C13A	1.03
U7C G9C U11G C13U	1.06
U7C G9C U10A U11A C13A	1.11
U7C G9C U10A U11A C13U	1.05
U7C G9C U10A U11A C13G	1.05
U7C G9U U10A U11G	1.31
U7C G9U U10A U11C	1.06
U7C G9U U10A U11A	1.42
U7C G9C U10C U11C C13G	1.04
U7C G9C U10C U11C C13A	1.02
U7C G9C U10C U11C C13U	1.01
U7C G9C U10C U11A C12G	0.941
U7C G9C U10C U11A C12U	1
U7C G9C U10C U11A C12A	1.09

Variant	aptazyme ON/OFF ratio
U7C G9U C12A C13U	1.19
U7C G9U C12A C13G	1.08
U7C G9U C12A C13A	1.18
U7C G9C U11C C13A	1.02
U7C G9C U11C C13G	1.02
U7C G9C U11C C13U	1
U7C G9U U10C C13G	1.06
U7C G9U U10C C13U	1.5
U7C G9U U10C C13A	1.04
U7C G9C U10A U11G C12U C13G	1.08
U7C G9C U10A U11G C12U C13U	1.13
U7C G9C U10A U11G C12U C13A	1.12
U7C G9C U11A C12G C13G	1.07
U7C G9C U11A C12G C13A	1.12
U7C G9C U11A C12G C13U	1.14
U7C G9C U11A C13U	1.02
U7C G9C U11A C13A	1.03
U7C G9C U11A C13G	1.04
U7C G9U C12U C13U	1.12
U7C G9U C12U C13G	1.1
U7C G9U C12U C13A	1.12
U7C G9C U10G U11C C12G C13A	1.16
U7C G9C U10G U11C C12G C13G	1.13
U7C G9C U10G U11C C12G C13U	1.12

Variant	aptazyme ON/OFF ratio
U7C G9C U10G C12U C13G	1.03
U7C G9C U10G C12U C13U	1.17
U7C G9C U10G C12U C13A	1.11
U7C G9C U10C U11G	1.07
U7C G9C U10C U11C	0.99
U7C G9C U10C U11A	0.975
U7C G9U U10A U11G C12G	1.19
U7C G9U U10A U11G C12U	1.3
U7C G9U U10A U11G C12A	1.08
U7C G9C U10A C13G	1.05
U7C G9C U10A C13A	1.04
U7C G9C U10A C13U	1.05
U7C G9C U10A U11G C13A	1.09
U7C G9C U10A U11G C13G	1.07
U7C G9C U10A U11G C13U	1.09
U7C G9C U10C C12G	1.07
U7C G9C U10C C12U	1.09
U7C G9C U10C C12A	1.04
U7C G9U U10A C12G C13A	1.24
U7C G9U U10A C12G C13U	1.27
U7C G9U U10A C12G C13G	1.13
U7C G9U U10C C12U C13G	1.05
U7C G9U U10C C12U C13U	1.08
U7C G9U U10C C12U C13A	1.08

Variant	aptazyme ON/OFF ratio
U7C G9C U10C U11A C12U C13A	1.03
U7C G9C U10C U11A C12U C13U	1.03
U7C G9C U10C U11A C12U C13G	1.07
U7C G9C U10A U11A C12A C13A	1.09
U7C G9C U10A U11A C12A C13U	1.06
U7C G9C U10A U11A C12A C13G	1.08
U7C G9C U11C C12G C13A	1.04
U7C G9C U11C C12G C13G	1.04
U7C G9C U11C C12G C13U	1.04
U7C G9C U11C C12A C13U	1.05
U7C G9C U11C C12A C13G	1.02
U7C G9C U11C C12A C13A	1.02
U7C G9C U11A C12U C13G	1.03
U7C G9C U11A C12U C13U	1.05
U7C G9C U11A C12U C13A	1.02
U7C G9C U11G C12U	1.08
U7C G9C U11G C12G	1.13
U7C G9C U11G C12A	1.01
U7C G9C U10C U11C C12G	1.03
U7C G9C U10C U11C C12A	1.03
U7C G9C U10C U11C C12U	1.01
U7C G9U U10A U11A C12A C13U	1.18
U7C G9U U10A U11A C12A C13G	1.1
